According to paper PMC8668096, “Investigating the role of the carbon storage regulator A (CsrA) in Leptospira spp”:

T1: rCsrA L. biflexa (Leptospira biflexa serovar Patoc, UniProt B0SQM8 1-79)
T1 sequence: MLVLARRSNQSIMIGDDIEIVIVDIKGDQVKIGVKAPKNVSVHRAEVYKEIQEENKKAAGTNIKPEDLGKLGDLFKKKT


Tests used:
rCsrA L. biflexa [1] = target: T1, rCsrA L. biflexa; test: EMSA; dose-dependent, 100-800 nM rCsrA, 1 nM RNA; 10 mM HEPES pH 7.3, 20 mM KCl, 1 mM MgCl2, 1 mM DTT (plus 10 mM DTT), 7.5% glycerol, 0.2 ug/uL yeast tRNA, 37 C 30 min; 10% native PAGE; conditions: protein: recombinant; tags: N-terminal 6xHis (pRSET-C); chain copies: 2; label: 5' biotin; hairpin (predicted, GGA-containing hexaloop)
rCsrA L. biflexa [2] = target: T1, rCsrA L. biflexa; test: EMSA; no interaction, 100-800 nM rCsrA, 1 nM RNA; 10 mM HEPES pH 7.3, 20 mM KCl, 1 mM MgCl2, 1 mM DTT (plus 10 mM DTT), 7.5% glycerol, 0.2 ug/uL yeast tRNA, 37 C 30 min; 10% native PAGE; conditions: protein: recombinant; tags: N-terminal 6xHis (pRSET-C); chain copies: 2; label: 5' biotin

Binder | binding result (rCsrA L. biflexa [1]) | binding result (rCsrA L. biflexa [2])
UGGACACACAGGAGGGUGUGAC (structured_RNA) [LEPBIa_1872 WT (flaB3 upstream)] | binds | 
UGGACACACAAAAGGGUGUGAC (structured_RNA) [LEPBIa_1872 Mut (GGA to AAA)] |  | no binding
